According to US20040019918:

B1: purified mouse MEKK2 (protein)
chain: MDDQQALNSIMQDLAVLHKASRPALSLQETRKAKPSSPKKQNDVRVKFEHRGEKRILQVTRPVKLEDLRSKSKIAFGQSMDLHYTNNELVIPLTTQDDLDKAVELLDRSIHMKSLKILLVVNGSTQATNLEPSPSPEDLNNTPLGAERKKRLSVVGPPNRDRSSPPPGYIPDILHQIARNGSFTSINSEGEFIPESMDQMLDPLSLSSPENSGSGSCPSLDSPLDGESYPKSRMPRAQSYPDNHQEFTDYDNPIFEKFGKGGTYPRRYHVSYHHQEYNDGRKTFPRARRTQGTSFRSPVSFSPTDHSLSTSSGSSVFTPEYDDSRIRRRGSDIDNPTLTVTDISPPSRSPRAPTNWRLGKLLGQGAFGRVYLCYDVDTGRELAVKQVQFNPESPETSKEVNALECEIQLLKNLLHERIVQYYGCLRDPQEKTLSIFMELSPGGSIKDQLKAYGALTENVTRKYTRQILEGVHYLHSNMIVHRDIKGANILRDSTGNIKLGDFGASKRLQTICLSGTGMKSVTGTPYWMSPEVISGEGYGRKADIWSVACTVVEMLTEKPPWAEFEAMAAIFKIATQPTNPKLPPHVSDYTRDFLKRIFVEAKLRPSAEELLRHMFVHYH
B2: His-tagged hMEKK2 (polyhistidine-hMEKK2 fusion) (protein)
chain: HHHHHHMDDQQALNSIMQDLAVLHKASRPALSLQETRKAKSSSPKKQNDVRVKFEHRGEKRILQFPRPVKLEDLRSKAKIAFGQSMDLHYTNNELVIPLTTQDDLDKAVELLDRSIHMKSLKILLVINGSTQATNLEPLPSLEDLDNTVFGAERKKRLSIIGPTSRDRSSPPPGYIPDELHQVARNGSFTSINSEGEFIPESMDQMLDPLSLSSPENSGSGSCPSLDSPLDGESYPKSRMPRAQSYPDNHQEFSDYDNPIFEKFGKGGTYPRRYHVSYHHQEYNDGRKTFPRARRTQGTSLRSPVSFSPTDHSLSTSSGSSIFTPEYDDSRIRRRGSDIDNPTLTVMDISPPSRSPRAPTNWRLGKLLGQGAFGRVYLCYDVDTGRELAVKQVQFDPDSPETSKEVNALECEIQLLKNLLHERIVQYYGCLRDPQEKTLSIFMEYMPGGSIKDQLKAYGALTENVTRKYTRQILEGVHYLHSNMIVHRDIKGANILRDSTGNVKLGDFGASKRLQTICLSGTGMKSVTGTPYWMSPEVISGEGYGRKADIWSVACTVVEMLTEKPPWAEFEAMAAIFKIATQPTNPKLPPHVSDYTRDFLKRIFVEAKLRPSADELLRHMFVHYH

Biological target: GST-MKK4 fusion protein (available from Upstate Biotechnologies, Inc)

Protein | phosphorylation of GST-MKK4 (32P incorporation from [gamma-32P]-ATP, SDS-PAGE, imaging)
B1 | comparable to the activity of purified mouse MEKK2
B2 | comparable to the activity of purified mouse MEKK2, and significantly above the background levels seen with control extracts
